Reference: the supplement of paper PMC10567573
± gives the standard deviation.

Experiment: protein stability index of a GFP-peptide fusion (GPS, HEK-293T) (PSI 1-6); higher = more stable
[1] = treatment: DMSO, c terminus: a fixed tail appended
[2] = treatment: MLN4924 1 uM, 8 h, c terminus: a fixed tail appended
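Further: 24-mer peptide tiles fused after GFP, lentivirally expressed, FACS-sorted into six equal bins by GFP/DsRed ratio, decoded by Illumina sequencing, PSI is the read-weighted mean bin number.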

Sequence	protein stability index [1]	protein stability index [2]	protein stability index (treatment: DMSO, c terminus: native)	protein stability index (treatment: MLN4924 1 uM, 8 h, c terminus: native)
FLLLIVFYTAITKKIFKSHLKSSR [P2RY14]	2.69 ± 0.42	2.52 ± 0.65	–	–
FLMGRVLYFHHYFPAMLFSSMLTG [POMT2]	3.35 ± 0.21	3.37 ± 0.43	–	–
FLPVDTSNNNGRIKQLRSGGTPIR [PTPRD]	3.33 ± 0.3	3.51 ± 0.063	–	–
FNGNYKVDSPKNFNIAGTVVKYRR [ADAMTSL2]	3.14 ± 0.23	3.44 ± 0.36	–	–
FNKGIYDIHVGLRGVPLLEWETEV [CLCN6]	2.13 ± 0.32	2.17 ± 0.44	–	–
FQRRNMIEPRERAKFKRKYKVKLV [NOP53]	2.87 ± 0.46	3.39 ± 0.58	–	–
FQVPVLCAVMNVVFITILIIALIA [CD69]	2.91 ± 0.36	2.96 ± 0.68	–	–
FRETEKSRWSEASRAILQRVQAAA [ALKBH7]	3.21 ± 0.18	3.3 ± 0.16	–	–
FRFDKPKKSRSPASAEAPGDSGER [ZNF511]	4.95 ± 0.11	5.11 ± 0.38	–	–
FRNCGACVTLMQGHEGSVSSCHFA [WDR88]	2.85 ± 0.62	2.59 ± 0.37	–	–
FRPVSETCTDRSGISTGHWSGEVK [FUT8]	3.79 ± 0.28	3.84 ± 0.26	–	–
FRSRSRLTHLSLSRRASESSLSSE [CDC25B]	3.84 ± 0.22	3.99 ± 0.099	–	–
FSSITDSTMSLNIITVTLNMEKYN [DVL3]	2.93 ± 0.63	2.75 ± 0.57	–	–
FTDYGLAALAVNTSILSRLPPEAL [RNF208]	2.29 ± 0.25	2.13 ± 0.31	–	–
FTEASMMMSLTKLADKELVHMISW [ESR2]	3.29 ± 0.78	3.48 ± 1.2	–	–
FTGNSKLELNFKAGDVIFLLSRIN [NCF4]	2.67 ± 0.76	3.16 ± 1.1	–	–
FTGSQPTAERITQLSAPHCKKLSL [ALDH8A1]	2.89 ± 0.5	3.46 ± 0.35	–	–
FTLASSSDTRVGAPATGSGTPGPF [CHIT1]	3.73 ± 0.19	3.84 ± 0.39	–	–
FVENGHSESSGQTHLEGDTVQIIC [CFHR2]	3.21 ± 0.38	3.67 ± 0.37	–	–
FWNSPSSPSSSAASSSSPSSSSAV [RHOBTB2]	4.41 ± 0.14	4.4 ± 0.089	–	–
GAAAPATPTPVAAALDACSGNDPF [SNAP91]	5.18 ± 0.34	5.15 ± 0.24	–	–
GAGDVVLLQRELAQEDSLNKLALQ [LYSMD4]	4.29 ± 0.29	4.01 ± 0.5	–	–
GATLGQTTSEEAVGGATLAQTTSE [HDAC6]	5.37 ± 0.34	5.63 ± 0.31	–	–

Sequence	protein stability index [1]	protein stability index [2]	protein stability index (treatment: DMSO, c terminus: native)	protein stability index (treatment: MLN4924 1 uM, 8 h, c terminus: native)
GCEHSCVSSEDSFVCQCFEGYILR [MATN2]	3.12 ± 0.38	3.27 ± 0.53	–	–
GDDQPSETDHLSMEEEDPMPRQIS [TPRG1]	5.47 ± 0.17	5.64 ± 0.22	–	–
GDGLLVGSEKVTMQNLNDRLASYL [KRT16]	2.66 ± 0.17	2.78 ± 0.32	–	–
GDGVPPRSLQDGTREGFGHSTSLK [LCOR]	5.08 ± 0.24	4.92 ± 0.22	–	–
GDMNHEWIGNEWLPSLGLPQYRSY [PPFIA4]	2.41 ± 0.73	2.8 ± 0.38	–	–
GEGKLSKRLKHKDDSVMKATQQAR [C22orf31]	4.64 ± 0.21	4.81 ± 0.22	–	–
GEKPFKCHLCNYACRRRDALTGHL [IKZF1]	2.2 ± 0.12	2.51 ± 0.53	–	–
GELEDESLNRACHQQNKIKDLQKE [CEP70]	5.3 ± 0.28	5.34 ± 0.24	–	–
GFRLAEDGKRCRRKDVCKSTHHGC [MATN2]	3.99 ± 0.66	4.09 ± 0.42	–	–
GGGGGGGGGGGGGGTSSNNSEEEE [ANKRD17]	5.42 ± 0.23	5.41 ± 0.31	–	–
GGKSGELEQEEERLSKEWEDSKRW [CHGA]	5.3 ± 0.33	5.07 ± 0.32	–	–
GGLVVSAASLAGCLGALCENTCLL [TSPAN10]	2.79 ± 0.57	2.67 ± 0.54	–	–
GGSCRAPSTYGGGLSVSSRFSSGG [KRT16]	2.97 ± 0.27	3.02 ± 0.15	–	–
GIAVWNMDVSREEAPQWLESDSCQ [WDFY1]	3.81 ± 0.081	3.74 ± 0.28	–	–
GIDIMKTSFPGRGSIPEFFHIMKR [AASDHPPT]	2.33 ± 0.59	2.501 ± 0.013	–	–
GIFEESFIEERRQGLEQFINKIAG [SNX12]	2.98 ± 0.59	2.84 ± 0.32	–	–
GKGEGPIWLDNLHCTGNEATLAAC [LOXL2]	3.43 ± 0.23	3.52 ± 0.57	–	–
GLALCPEVQDLLEGCELPDLPSSL [SMG5]	4.05 ± 0.25	3.96 ± 0.25	–	–
GLEEADAEVSVISEADPQALLQAM [FBF1]	5.06 ± 0.26	5.05 ± 0.15	–	–
GLEHAAAGGSSGTTARERPCVRPG [FBF1]	4.96 ± 0.24	4.95 ± 0.2	–	–
GLGHGSTSRGGPWVGTGLAAALAG [CPOX]	3.17 ± 0.21	3.21 ± 0.29	–	–
GMDPERLKAFNMFVRLFVDENLDR [NOL4L]	2.1 ± 0.42	2.39 ± 0.37	–	–
GPEPKDKGSLPQPPITEVESQVFS [ZNF232]	5.51 ± 0.078	5.36 ± 0.23	–	–

Sequence	protein stability index [1]	protein stability index [2]	protein stability index (treatment: DMSO, c terminus: native)	protein stability index (treatment: MLN4924 1 uM, 8 h, c terminus: native)
GPLPVKRGPPPRSGGPPPKRSAPS [RBMX]	4.49 ± 0.39	4.85 ± 0.25	–	–
GPRDPQLVPILIEAARNGKMKFVI [NSDHL]	2.11 ± 0.44	2.38 ± 0.38	–	–
GPSAEAYLLHPAAFHGAPSHLPTR [TBX6]	3.31 ± 0.21	3.42 ± 0.16	–	–
GRHYWEVEVGDKTHWAVGVCRDSV [TRIM39]	2.48 ± 0.41	2.42 ± 0.22	–	–
GRLLFAGYNDYTINVWDVLKGSRV [GNB5]	2.48 ± 0.58	2.18 ± 0.17	–	–
GRQKYKRRPEVDPLPFPGPFPAGP [ESRRA]	3.87 ± 0.22	4.02 ± 0.26	–	–
GRVHLVKEKTAKHFFALKVMSIPD [PRKX]	1.87 ± 0.52	2.38 ± 0.57	–	–
GRYPLIQTLRQELSLPYLPSGTPE [CHIT1]	3.51 ± 0.26	3.47 ± 0.27	–	–
GSDKCVFLKNTEVSSMECEKNLYW [CD69]	3.06 ± 0.26	3.12 ± 0.36	–	–
GSGGTRGPPSRGGHMDDGGYSMNF [RBMX]	3.96 ± 0.24	4 ± 0.43	–	–
GSKARAEGRGPVTPLHLDLTQLHR [PLEKHN1]	3.52 ± 0.061	3.835 ± 0.001	–	–
GTAGDSMSYHSGSVFSARDRDPNS [TNXB]	4.66 ± 0.18	4.87 ± 0.14	–	–
GTGAVVTSLFMTPLDVVKVRLQSQ [SLC25A39]	2.18 ± 0.11	2.06 ± 0.52	–	–
GTNTVSFYTLSPNSHFSLNVKTLK [PCDHGC5]	2.4 ± 0.39	2.51 ± 0.21	–	–
GVEVIVRISHTLYDLDKIIELNGG [CRY1]	3.29 ± 1.2	2.57 ± 0.76	–	–
GYGGGFSSSSSFGSGFGGGYGGGL [KRT16]	2.47 ± 0.33	2.57 ± 0.14	–	–
GYYSEKLEAIQLDGEILFSLLQKV [TBC1D10A]	2.44 ± 0.59	2.53 ± 0.32	–	–
HAGTVYGGVMYISGGITHDTFQKE [KLHL13]	2.32 ± 0.24	2.31 ± 0.22	–	–
HDDGYMICCDKCSVWQHIDCMGID [KMT2E]	2.67 ± 0.29	2.92 ± 0.42	–	–
HDSANCELPLLTPCSKAVMSQALK [ETS2]	3.34 ± 0.28	3.45 ± 0.24	–	–
HETRLVEVDSGRQIEYEYKLAQAL [LMNB1]	3.81 ± 0.044	3.96 ± 0.29	–	–
HEWKSLAPMDAPRYQHGIAVIGNF [KLHL13]	2.22 ± 0.2	2.17 ± 0.26	–	–
HFVDEHGKDQGINIRQKVKELVEF [CLINT1]	3.26 ± 0.23	3.83 ± 0.28	–	–

Sequence	protein stability index [1]	protein stability index [2]	protein stability index (treatment: DMSO, c terminus: native)	protein stability index (treatment: MLN4924 1 uM, 8 h, c terminus: native)
HGASAPSVSREARQTVPPLTVRLH [PWWP2B]	3.76 ± 0.48	3.73 ± 0.12	–	–
HGEEEVETFAFQAEIAQLMSLIIN [HSP90AB1]	2.58 ± 0.33	2.95 ± 0.28	–	–
HIFNTLRSHLIDKGMLTSTTEDE [CDS2]	–	–	2.71 ± 0.042	3.23 ± 0.39
HLANHDDLISKSFQGSQGRAYLFN [YPEL3]	2.8 ± 0.075	3.03 ± 0.24	–	–
HLIKHRRTHTGEQPYTCSICRRNF [ZNF75A]	2.56 ± 0.28	2.99 ± 0.41	–	–
HMFTPKLDKMLDPQVWREAATQVF [SLC6A17]	2.11 ± 0.24	2.25 ± 0.47	–	–
HPDDRPKLNKPPETLITTIDSSSS [CYB5A]	4.85 ± 0.49	5.04 ± 0.32	–	–
HPNIITLHDIFENKTDVVLILELV [DAPK3]	2.54 ± 0.14	2.34 ± 0.23	–	–
HTAKCEKLQKEKEELERRFEDEVK [MTUS2]	5.57 ± 0.26	5.6 ± 0.07	–	–
HTMEEEEDDDWGEDTTEEAQRRRM [EIF5]	5.55 ± 0.35	5.63 ± 0.28	–	–
HVPELEMLGRLGYLNHVRAASPQD [MNAT1]	3.44 ± 0.2	3.45 ± 0.45	–	–
IAAPHAGANVKPRNSTPPSLARNP [ZC2HC1A]	4.35 ± 0.12	4.48 ± 0.25	–	–
IDICHDHFGWYLGWGDCVWLPYLY [DHCR7]	2.55 ± 0.12	3.3 ± 0.27	–	–
IDLSAWCYYCQAYVHHQALLDVKN [HDAC6]	2.73 ± 0.38	3.08 ± 1.2	–	–
IGCKKPVSASGKEMDWAQMACHRC [SMG5]	3.04 ± 0.34	3.48 ± 0.28	–	–
IGMHREMQVNPISKRMGPMTVVRM [RHOBTB1]	2.39 ± 0.44	2.39 ± 0.32	–	–
IIANTMAFQNDVYEWARDHRAHHK [SCD]	2.52 ± 0.17	2.86 ± 0.27	–	–
IKPAPARAPACSPEAAAAQLRATA [FCHO1]	3.53 ± 0.17	3.98 ± 0.13	–	–
IKSHSSLPPNNSYADFERFSKVLE [DAPK3]	2.81 ± 0.22	2.96 ± 0.39	–	–
ILAAACESETRKAAKRMRLEIYQS [NOL4L]	2.47 ± 0.24	2.54 ± 0.05	–	–
